Patent US20080039336A1

Biological target: TRPM4 of rat-derived INS-1 and RINm5F cells (endogenous) (rat) (UniProt Q9ESQ5)
Assay: cell-based or functional assay

TRPM4 of rat-derived INS-1 and RINm5F cells (endogenous) (rat), sequence (Q9ESQ5 whole entry): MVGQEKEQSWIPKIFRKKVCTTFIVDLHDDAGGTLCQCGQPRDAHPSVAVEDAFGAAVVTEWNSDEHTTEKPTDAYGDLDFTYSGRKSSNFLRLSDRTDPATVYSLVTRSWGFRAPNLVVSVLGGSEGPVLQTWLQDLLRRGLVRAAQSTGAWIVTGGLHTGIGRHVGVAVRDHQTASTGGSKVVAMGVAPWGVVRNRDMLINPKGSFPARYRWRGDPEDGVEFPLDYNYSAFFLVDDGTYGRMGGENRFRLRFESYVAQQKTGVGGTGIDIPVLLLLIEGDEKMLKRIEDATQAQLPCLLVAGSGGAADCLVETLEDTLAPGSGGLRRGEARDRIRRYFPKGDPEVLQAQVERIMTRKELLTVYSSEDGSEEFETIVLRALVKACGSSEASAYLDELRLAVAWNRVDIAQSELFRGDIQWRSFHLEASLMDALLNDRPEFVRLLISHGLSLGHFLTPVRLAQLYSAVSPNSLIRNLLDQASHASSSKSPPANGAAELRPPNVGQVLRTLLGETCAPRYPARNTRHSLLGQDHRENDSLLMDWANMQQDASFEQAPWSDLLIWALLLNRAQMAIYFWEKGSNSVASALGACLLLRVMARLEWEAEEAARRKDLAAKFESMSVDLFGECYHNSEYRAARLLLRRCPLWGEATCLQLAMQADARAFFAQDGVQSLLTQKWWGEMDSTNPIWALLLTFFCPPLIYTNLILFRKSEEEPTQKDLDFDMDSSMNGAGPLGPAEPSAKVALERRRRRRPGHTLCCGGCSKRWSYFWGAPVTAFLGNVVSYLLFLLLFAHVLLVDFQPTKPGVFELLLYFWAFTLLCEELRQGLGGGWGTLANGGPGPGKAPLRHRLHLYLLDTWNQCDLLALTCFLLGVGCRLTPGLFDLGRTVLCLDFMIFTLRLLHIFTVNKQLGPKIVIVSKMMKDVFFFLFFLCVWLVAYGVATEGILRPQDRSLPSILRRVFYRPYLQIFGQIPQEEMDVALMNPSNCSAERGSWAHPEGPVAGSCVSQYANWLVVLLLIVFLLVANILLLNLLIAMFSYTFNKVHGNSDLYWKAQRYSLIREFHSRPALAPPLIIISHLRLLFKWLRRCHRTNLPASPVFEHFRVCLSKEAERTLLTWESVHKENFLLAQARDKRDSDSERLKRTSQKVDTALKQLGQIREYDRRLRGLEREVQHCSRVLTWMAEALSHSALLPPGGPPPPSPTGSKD

In the case of ΔN-TRPM4 (from UniProt Q8TD43 178-1214), the insulin secretion of INS-1 cells at 25 mM glucose, fold over basal 4 mM, static incubation (mock-transfected control ~2.2-fold) is reported as 1.3 fold.
